According to US20240108716A1:

Experiments:
[1] = target: SARS-CoV-2 S peptide 106 (C-GGG-…) (SARS-CoV-2); experiment: ELISA, control for CPMV106 on immobilised peptide
[2] = target: SARS-CoV-2 S peptide 153 (C-GGG-…) (SARS-CoV-2); experiment: ELISA, control for CPMV153 on immobilised peptide
[3] = target: SARS-CoV-2 S peptide 386 (C-GGG-…) (SARS-CoV-2); experiment: ELISA, control for CPMV386 on immobilised peptide
[4] = target: SARS-CoV-2 S peptide 420 (C-GGG-…) (SARS-CoV-2); experiment: ELISA, control for CPMV420 on immobilised peptide
[5] = target: SARS-CoV-2 S peptide 454 (C-GGG-…) (SARS-CoV-2); experiment: ELISA, control for CPMV454 on immobilised peptide
[6] = target: SARS-CoV-2 S peptide 460 (C-GGG-FRKSN) (SARS-CoV-2); experiment: ELISA, control for CPMV460 on immobilised peptide
[7] = target: SARS-CoV-2 S peptide 469 (C-GGG-…) (SARS-CoV-2); experiment: ELISA, control for CPMV469 on immobilised peptide
[8] = target: SARS-CoV-2 S peptide 564 (C-GGG-…) (SARS-CoV-2); experiment: ELISA, control for CPMV564 on immobilised peptide
[9] = target: SARS-CoV-2 S peptide 570 (C-GGG-…) (SARS-CoV-2); experiment: ELISA, control for CPMV570 on immobilised peptide
[10] = target: SARS-CoV-2 S peptide 636 (C-GGG-…) (SARS-CoV-2); experiment: ELISA, control for CPMV636 on immobilised peptide
[11] = target: SARS-CoV-2 S peptide 820 (C-GGG-…) (SARS-CoV-2); experiment: ELISA, control for CPMV820 on immobilised peptide
[12] = target: SARS-CoV-2 S peptide 826 (C-GGG-…) (SARS-CoV-2); experiment: ELISA, control for CPMV826 on immobilised peptide
[13] = target: SARS-CoV-2 S peptide 1159 (C-GGG-…) (SARS-CoV-2); experiment: ELISA, control for CPMV1159 on immobilised peptide

Substance: Control plasma of the peptide ELISA of the CPMV-based COVID-19 vaccines (antibody)
- endpoint IgG titer (reciprocal dilution) [1]: 400
- endpoint IgG titer (reciprocal dilution) [2]: 2130
- endpoint IgG titer (reciprocal dilution) [3]: 266
- endpoint IgG titer (reciprocal dilution) [4]: 400
- endpoint IgG titer (reciprocal dilution) [5]: 100
- endpoint IgG titer (reciprocal dilution) [6]: 1470
- endpoint IgG titer (reciprocal dilution) [7]: 1870
- endpoint IgG titer (reciprocal dilution) [8]: 1600
- endpoint IgG titer (reciprocal dilution) [9]: 1600
- endpoint IgG titer (reciprocal dilution) [10]: 100
- endpoint IgG titer (reciprocal dilution) [11]: 800
- endpoint IgG titer (reciprocal dilution) [12]: 1600
- endpoint IgG titer (reciprocal dilution) [13]: 400
